Laboratory results published in PMC5234717 (Journal of Lipid Research, 2016).

Target: Burkholderia pseudomallei K96243 sphingosine-1-phosphate lyase S1PL2021 (shorter ORF of BPSS2021, st (Burkholderia pseudomallei K96243))
Assay: SEC

## Burkholderia pseudomallei K96243 sphingosine-1-phosphate lyase S1PL2021 (shorter ORF of BPSS2021, st (enzyme)
  stoichiometry N: 2
